Results reported in patent US20260240959A1, “METHODS FOR IN VIVO EDITING OF KLKB1” (INTELLIA THERAPEUTICS, INC., priority 2022, published 2026).
In the oligonucleotide strings, read from the 5' end, every base follows the letter of its sugar. An asterisk marks phosphorothioate; unmarked linkages are phosphodiester. Other units and linkages are bracketed, terminal groups are in braces. A string of capitals states the bases alone. m = 2'-O-methyl; r = 2'-OH (RNA)

What was measured:
[1] = system: plasma kallikrein protein; assay: Plasma kallikrein protein level in cynomolgus monkeys; format: in vivo, cynomolgus monkey; conditions: n=3
Procedure: (§1) Cynomolgus monkeys were treated in cohorts of n=3. This study was conducted with LNP formulations according to Example 1. […]. Animals were dosed at 1.5, 3, or 6 mg per kg doses based on total RNA cargo. Indel formation (percent editing) was measured by NGS. Total kallikrein activity and plasma kallikrein protein level were measured as described above. […]

plasma kallikrein = assay: Plasma kallikrein activity in cynomolgus monkeys; format: in vivo, cynomolgus monkey
Procedure: as §1

B1: G013901: cynomolgus specific KLKB1 guide RNA (SEQ ID NO: 409); dosed as LNP formulation with Cas9 mRNA (nucleic acid)
guide: mG*mG*mA*rUrUrArCrArUrArUrGrGrGrArCrArCrArArGrUrUrUrUrArGrAmGmCmUmAmGmAmAmAmUmAmGmCrArArGrUrUrArArArArUrArArGrGrCrUrArGrUrCrCrGrUrUrArUrCrAmAmCmUmUmGmAmAmAmAmAmGmUmGmGmCmAmCmCmGmAmGmUmCmGmGmUmGmCmU*mU*mU*mU
How did the “Plasma Kallikrein Protein Levels (% of basal level), Mean” value ([1]; 1.5 mpk, Day 14) turn out when B1 was run?
The value was 28.8 % of basal level.

And the “Plasma Kallikrein Protein Levels (% of basal level), Mean” value ([1]; 1.5 mpk, Day 28)?
Its value is 32.7 % of basal level.

What about the “Plasma Kallikrein Protein Levels (% of basal level), Mean” value ([1]; 1.5 mpk, Day 42) of the same molecule?
Its value is 31.5 % of basal level.

What about the “Plasma Kallikrein Protein Levels (% of basal level), Mean” value ([1]; 1.5 mpk, Day 56) of the same molecule?
The value was 30.1 % of basal level.

And the “Plasma Kallikrein Protein Levels (% of basal level), Mean” value ([1]; 1.5 mpk, Day 70)?
Its value is 29.8 % of basal level.

And the “Plasma Kallikrein Protein Levels (% of basal level), Mean” value ([1]; 1.5 mpk, Day 84)?
The value was 38.7 % of basal level.

What about the “Plasma Kallikrein Protein Levels (% of basal level), Mean” value ([1]; 1.5 mpk, Day 105) of the same molecule?
Its value is 47 % of basal level.

And the “Plasma Kallikrein Protein Levels (% of basal level), Mean” value ([1]; 1.5 mpk, Day 119)?
The value was 31.6 % of basal level.

What about the “Plasma Kallikrein Protein Levels (% of basal level), Mean” value ([1]; 1.5 mpk, Day 147) of the same molecule?
Its value is 32.1 % of basal level.

And the “Plasma Kallikrein Protein Levels (% of basal level), Mean” value ([1]; 1.5 mpk, Day 161)?
The value was 35.8 % of basal level.

What about the “Plasma Kallikrein Protein Levels (% of basal level), Mean” value ([1]; 1.5 mpk, Day 180) of the same molecule?
Its value is 33.8 % of basal level.

What about the “Plasma Kallikrein Protein Levels (% of basal level), Mean” value ([1]; 1.5 mpk, Day 238) of the same molecule?
The value was 27.4 % of basal level.

What about the “Plasma Kallikrein Protein Levels (% of basal level), Mean” value ([1]; 1.5 mpk, Day 252) of the same molecule?
The value was 27.9 % of basal level.

What about the “Plasma Kallikrein Protein Levels (% of basal level), Mean” value ([1]; 1.5 mpk, Day 266) of the same molecule?
The value was 28.7 % of basal level.

And the “Plasma Kallikrein Protein Levels (% of basal level), Mean” value ([1]; 1.5 mpk, Day 280)?
Its value is 33.7 % of basal level.

What about the “Plasma Kallikrein Protein Levels (% of basal level), Mean” value ([1]; 1.5 mpk, Day 294) of the same molecule?
The value was 30.4 % of basal level.

And the “Plasma Kallikrein Protein Levels (% of basal level), Mean” value ([1]; 1.5 mpk, Day 308)?
The value was 20.6 % of basal level.

And the “Plasma Kallikrein Protein Levels (% of basal level), Mean” value ([1]; 1.5 mpk, Day 326)?
The value was 29.7 % of basal level.

And the “Plasma Kallikrein Protein Levels (% of basal level), Mean” value ([1]; 1.5 mpk, Day 333)?
The value was 30.9 % of basal level.

What about the “Plasma Kallikrein Protein Levels (% of basal level), Mean” value ([1]; 1.5 mpk, Day 347) of the same molecule?
The value was 26 % of basal level.

And the “Plasma Kallikrein Protein Levels (% of basal level), Mean” value ([1]; 1.5 mpk, Day 365)?
The value was 22.7 % of basal level.

What about the “Plasma Kallikrein Protein Levels (% of basal level), Mean” value ([1]; 3 mpk, Day 14) of the same molecule?
Its value is 27.1 % of basal level.

And the “Plasma Kallikrein Protein Levels (% of basal level), Mean” value ([1]; 3 mpk, Day 28)?
The value was 16.9 % of basal level.

And the “Plasma Kallikrein Protein Levels (% of basal level), Mean” value ([1]; 3 mpk, Day 42)?
Its value is 16 % of basal level.

And the “Plasma Kallikrein Protein Levels (% of basal level), Mean” value ([1]; 3 mpk, Day 56)?
Its value is 15.4 % of basal level.

And the “Plasma Kallikrein Protein Levels (% of basal level), Mean” value ([1]; 3 mpk, Day 70)?
Its value is 15.4 % of basal level.

And the “Plasma Kallikrein Protein Levels (% of basal level), Mean” value ([1]; 3 mpk, Day 84)?
Its value is 17.1 % of basal level.

And the “Plasma Kallikrein Protein Levels (% of basal level), Mean” value ([1]; 3 mpk, Day 105)?
Its value is 22.3 % of basal level.

And the “Plasma Kallikrein Protein Levels (% of basal level), Mean” value ([1]; 3 mpk, Day 119)?
The value was 18.1 % of basal level.

And the “Plasma Kallikrein Protein Levels (% of basal level), Mean” value ([1]; 3 mpk, Day 147)?
The value was 18.3 % of basal level.

What about the “Plasma Kallikrein Protein Levels (% of basal level), Mean” value ([1]; 3 mpk, Day 161) of the same molecule?
The value was 7.5 % of basal level.

And the “Plasma Kallikrein Protein Levels (% of basal level), Mean” value ([1]; 3 mpk, Day 180)?
The value was 18 % of basal level.

What about the “Plasma Kallikrein Protein Levels (% of basal level), Mean” value ([1]; 3 mpk, Day 238) of the same molecule?
The value was 16.4 % of basal level.

What about the “Plasma Kallikrein Protein Levels (% of basal level), Mean” value ([1]; 3 mpk, Day 252) of the same molecule?
Its value is 15.6 % of basal level.

And the “Plasma Kallikrein Protein Levels (% of basal level), Mean” value ([1]; 3 mpk, Day 266)?
The value was 21.8 % of basal level.

What about the “Plasma Kallikrein Protein Levels (% of basal level), Mean” value ([1]; 3 mpk, Day 280) of the same molecule?
The value was 24.6 % of basal level.

And the “Plasma Kallikrein Protein Levels (% of basal level), Mean” value ([1]; 3 mpk, Day 294)?
Its value is 24.6 % of basal level.

And the “Plasma Kallikrein Protein Levels (% of basal level), Mean” value ([1]; 3 mpk, Day 308)?
Its value is 27.6 % of basal level.

What about the “Plasma Kallikrein Protein Levels (% of basal level), Mean” value ([1]; 3 mpk, Day 326) of the same molecule?
The value was 23.8 % of basal level.

And the “Plasma Kallikrein Protein Levels (% of basal level), Mean” value ([1]; 3 mpk, Day 333)?
The value was 25.3 % of basal level.

And the “Plasma Kallikrein Protein Levels (% of basal level), Mean” value ([1]; 3 mpk, Day 347)?
The value was 22.1 % of basal level.

And the “Plasma Kallikrein Protein Levels (% of basal level), Mean” value ([1]; 3 mpk, Day 365)?
Its value is 11.4 % of basal level.

And the “Plasma Kallikrein Protein Levels (% of basal level), Mean” value ([1]; 6 mpk, Day 14)?
Its value is 13.7 % of basal level.

And the “Plasma Kallikrein Protein Levels (% of basal level), Mean” value ([1]; 6 mpk, Day 28)?
The value was 6.6 % of basal level.

And the “Plasma Kallikrein Protein Levels (% of basal level), Mean” value ([1]; 6 mpk, Day 42)?
The value was 6.3 % of basal level.

And the “Plasma Kallikrein Protein Levels (% of basal level), Mean” value ([1]; 6 mpk, Day 56)?
The value was 5.8 % of basal level.

And the “Plasma Kallikrein Protein Levels (% of basal level), Mean” value ([1]; 6 mpk, Day 70)?
Its value is 5.8 % of basal level.

What about the “Plasma Kallikrein Protein Levels (% of basal level), Mean” value ([1]; 6 mpk, Day 84) of the same molecule?
The value was 6.7 % of basal level.

And the “Plasma Kallikrein Protein Levels (% of basal level), Mean” value ([1]; 6 mpk, Day 105)?
Its value is 7.6 % of basal level.

What about the “Plasma Kallikrein Protein Levels (% of basal level), Mean” value ([1]; 6 mpk, Day 119) of the same molecule?
The value was 6.4 % of basal level.

What about the “Plasma Kallikrein Protein Levels (% of basal level), Mean” value ([1]; 6 mpk, Day 147) of the same molecule?
The value was 6.7 % of basal level.

What about the “Plasma Kallikrein Protein Levels (% of basal level), Mean” value ([1]; 6 mpk, Day 161) of the same molecule?
The value was 7.4 % of basal level.

What about the “Plasma Kallikrein Protein Levels (% of basal level), Mean” value ([1]; 6 mpk, Day 180) of the same molecule?
The value was 2.9 % of basal level.

And the “Plasma Kallikrein Protein Levels (% of basal level), Mean” value ([1]; 6 mpk, Day 238)?
The value was 3.7 % of basal level.

What about the “Plasma Kallikrein Protein Levels (% of basal level), Mean” value ([1]; 6 mpk, Day 252) of the same molecule?
The value was 3.9 % of basal level.

What about the “Plasma Kallikrein Protein Levels (% of basal level), Mean” value ([1]; 6 mpk, Day 266) of the same molecule?
Its value is 3.7 % of basal level.

What about the “Plasma Kallikrein Protein Levels (% of basal level), Mean” value ([1]; 6 mpk, Day 280) of the same molecule?
Its value is 6.3 % of basal level.

What about the “Plasma Kallikrein Protein Levels (% of basal level), Mean” value ([1]; 6 mpk, Day 294) of the same molecule?
Its value is 7.4 % of basal level.

What about the “Plasma Kallikrein Protein Levels (% of basal level), Mean” value ([1]; 6 mpk, Day 308) of the same molecule?
The value was 6.2 % of basal level.

And the “Plasma Kallikrein Protein Levels (% of basal level), Mean” value ([1]; 6 mpk, Day 326)?
The value was 8 % of basal level.

What about the “Plasma Kallikrein Protein Levels (% of basal level), Mean” value ([1]; 6 mpk, Day 333) of the same molecule?
Its value is 7.8 % of basal level.

And the “Plasma Kallikrein Protein Levels (% of basal level), Mean” value ([1]; 6 mpk, Day 347)?
The value was 7.3 % of basal level.

What about the “Plasma Kallikrein Protein Levels (% of basal level), Mean” value ([1]; 6 mpk, Day 365) of the same molecule?
Its value is 4.3 % of basal level.

And the “durability of response in NHPs” value (plasma kallikrein; cynomolgus monkey, in vivo)?
Its value is “durable through one year”.

What about the “Kallikrein Activity (% of basal activity), Mean” value (plasma kallikrein; n=3, 1.5 mpk, Day 7) of the same molecule?
The value was 67.8 % of basal activity.
